Laboratory results reported in paper PMC3847324, “Jun dimerization protein 2 is a critical component of the Nrf2/MafK complex regulating the response to ROS homeostasis”.

Tests used:
Experiment in all cases: EMSA; EMSA: 5 ug GST fusion or 10 ng IVT protein, 25 C 30 min; 5% native PAGE in 0.5x TBE at 4 C; binding buffer, salt and pH not given
GST-JDP2 = target: T1, GST-JDP2 (mouse, UniProt P97875 1-163); conditions: protein: recombinant; tags: GST; chain copies: 2; label: 32P 5' end (T4 kinase) as probe; blunt
T1 sequence: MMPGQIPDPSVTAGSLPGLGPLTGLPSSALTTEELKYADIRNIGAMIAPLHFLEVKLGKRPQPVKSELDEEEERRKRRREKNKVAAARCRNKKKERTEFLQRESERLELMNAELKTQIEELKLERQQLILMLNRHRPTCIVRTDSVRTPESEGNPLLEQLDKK

IVT-JDP2 = target: T2, IVT-JDP2 (mouse, UniProt P97875 1-163); conditions: protein: ivt; chain copies: 2; label: 32P 5' end (T4 kinase) as probe; blunt
T2 sequence: T1 sequence

IVT-MafK = IVT-MafK (rat, UniProt Q8K4B3 1-156); conditions: protein: ivt; chain copies: 2; label: 32P 5' end (T4 kinase) as probe; blunt

Measured: binding result

Sequence of IVT-MafK (Q8K4B3 entry or part of it): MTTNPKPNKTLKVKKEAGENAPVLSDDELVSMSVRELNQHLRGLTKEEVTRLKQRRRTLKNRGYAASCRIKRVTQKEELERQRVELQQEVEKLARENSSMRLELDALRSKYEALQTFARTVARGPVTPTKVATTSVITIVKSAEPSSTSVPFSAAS

B1: human NQO1-ARE WT (dsDNA)
DNA 1: CAGTCACAGTGACTCAGCAGAATCT
DNA 2: AGATTCTGCTGAGTCACTGTGACTG
binds: GST-JDP2 | IVT-JDP2 | IVT-MafK
